In US20240327535A1 (EISAI R AND D MANAGEMENT, published 2024) one finds Kd data, which are given here for 14 molecules.

Where two headings read alike, the source gives them in different places.

A word on the Kd: it is the free concentration of one partner at which half of the binding sites on the other are occupied at equilibrium, for simple one-to-one binding.

What all share (experiment): Octet BLI; Fab 200 nM
In assay [1] the target is T1, extracellular domain of human BCMA (human, UniProt Q02223 1-54).
T1 construct: amine-linked to Octet AR2G tips; also called hsBCMA; BCMA (human)
T1 sequence: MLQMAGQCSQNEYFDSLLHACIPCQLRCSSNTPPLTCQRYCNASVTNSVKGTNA

For assay [2], the target named is T2, extracellular domain of rhesus monkey BCMA (rhesus monkey, UniProt F7FFA0 1-53).
T2 construct: extracellular domain; also called RhBCMA

Assay [3] concerns the target T1, extracellular domain of human BCMA. The source holds these as a separate data set.
Assay [4] has as its target T2, extracellular domain of rhesus monkey …. This is another data set of the same source.

T2 sequence (F7FFA0 entry or part of it): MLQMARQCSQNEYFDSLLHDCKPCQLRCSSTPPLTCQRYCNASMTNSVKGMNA

B1: AB200-(2Vk35)_R2-VH-v32 (Fab, V domains shown)
VH: QVQLVQSGAEVKKPGSSVKVSCKASGGTFSNYWIHWVRQAPGQGLEWMGATYRSHSDTNYNQKYKSRVTITADKSTSTAYMELSSLRSEDTAVYYCARGAIFHGYDVIDNWGQGTLVTVSS
VL: DIQMTQSPSSLSASVGDRVTITCRASQSISSYINWYQQKPGKAPKLLIYATSNLQSGVPSRFSGSGSGTDFTLTISSLQPEDFATYYCQQYRRIPWTFGQGTKLEIKR
In the case of B1, the Kd in assay [1] was determined as 29.1 nM; in assay [2] it was 67.3 nM.

B2: AB200-(2Vk35)_R2-VH-v76 (Fab, V domains shown)
VH: QVQLVQSGAEVKKPGSSVKVSCKASGGTFSNYWIHWVRQAPGQGLEWMGATYRIQSDTYYNEKFKSRVTITADKSTSTAYMELSSLRSEDTAVYYCARGAIYHGFDVIDNWGQGTLVTVSS
VL: DIQMTQSPSSLSASVGDRVTITCRASQSISSYINWYQQKPGKAPKLLIYATSNLQSGVPSRFSGSGSGTDFTLTISSLQPEDFATYYCQQYRRIPWTFGQGTKLEIKR
On to B2, for which the values for the Kd in assay [1] and in assay [2] were 1.93 nM and 8.46 nM, respectively.

B3: AB200-(2Vk35)_R2-VH-v46 (Fab, V domains shown)
VH: QVQLVQSGAEVKKPGSSVKVSCKASGGTYSNYWIHWVRQAPGQGLEWMGATYRIQSDTNYNQKFKSRVTITADKSTSTAYMELSSLRSEDTAVYYCARGAIYHGYDVIENWGQGTLVTVSS
VL: DIQMTQSPSSLSASVGDRVTITCRASQSISSYINWYQQKPGKAPKLLIYATSNLQSGVPSRFSGSGSGTDFTLTISSLQPEDFATYYCQQYRRIPWTFGQGTKLEIKR
As for B3, the Kd came to 103 nM in assay [1] and 287 nM in assay [2].

B4: AB200-(2Vk35)_R2-VH-v48 (Fab, V domains shown)
VH: QVQLVQSGAEVKKPGSSVKVSCKASGGTYSNYWIHWVRQAPGQGLEWMGGTYRIHSTTYYNQKFKSRVTITADKSTSTAYMELSSLRSEDTAVYYCARGAIYHGFDVIDNWGQGTLVTVSS
VL: DIQMTQSPSSLSASVGDRVTITCRASQSISSYINWYQQKPGKAPKLLIYATSNLQSGVPSRFSGSGSGTDFTLTISSLQPEDFATYYCQQYRRIPWTFGQGTKLEIKR
Take B4: the Kd was 36.6 nM in assay [1] and 52 nM in assay [2].

B5: AB200-(2Vk35)_R2-VH-v38 (Fab, V domains shown)
VH: QVQLVQSGAEVKKPGSSVKVSCKASGGTFSNYWIHWVRQAPGQGLEWMGATYRSQSDTYYNEKFKSRVTITADKSTSTAYMELSSLRSEDTAVYYCARGAIYHGFDVIDNWGQGTLVTVSS
VL: DIQMTQSPSSLSASVGDRVTITCRASQSISSYINWYQQKPGKAPKLLIYATSNLQSGVPSRFSGSGSGTDFTLTISSLQPEDFATYYCQQYRRIPWTFGQGTKLEIKR
On to B5, for which the Kd in assay [1] worked out at 1.89 nM; in assay [2], 9.59 nM.

B6: AB200-(2Vk35)_R2-VH-v63 (Fab, V domains shown)
VH: QVQLVQSGAEVKKPGSSVKVSCKASGGTFSNYWIHWVRQAPGQGLEWMGATYRIHSTTNYNQKFKSRVTITADESTSTAYMELSSLRSEDTAVYYCARGAVYHGYDVIDNWGQGTLVTVSS
VL: DIQMTQSPSSLSASVGDRVTITCRASQSISSYINWYQQKPGKAPKLLIYATSNLQSGVPSRFSGSGSGTDFTLTISSLQPEDFATYYCQQYRRIPWTFGQGTKLEIKR
On to B6, for which the Kd in assay [1] stood at 27.1 nM; in assay [2], 9.56 nM.

B7: AB200-(2Vk35)_R2-VH-v55 (Fab, V domains shown)
VH: QVQLVQSGAEVKKPGSSVKVSCKASGGSFSNYWIHWVRQAPGQGLEWMGATYRIHSTTYYNQKYKSRVTITADKSTSTAYMELSSLRSEDTAVYYCARGAVYHGYDVIDNWGQGTLVTVSS
VL: DIQMTQSPSSLSASVGDRVTITCRASQSISSYINWYQQKPGKAPKLLIYATSNLQSGVPSRFSGSGSGTDFTLTISSLQPEDFATYYCQQYRRIPWTFGQGTKLEIKR
B7: the Kd in assay [1] was 19.7 nM; in assay [2], 43.1 nM.

B8: AB200-(2Vk35)_R2-VH-v36 (Fab, V domains shown)
VH: QVQLVQSGAEVKKPGSSVKVSCKASGGTFSNYWIHWVRQAPGQGLEWMGATYRSHSDTYYAEKFKSRVTITADKSTSTAYMELSSLRSEDTAVYYCARGAIFHGYDVIDNWGQGTLVTVSS
VL: DIQMTQSPSSLSASVGDRVTITCRASQSISSYINWYQQKPGKAPKLLIYATSNLQSGVPSRFSGSGSGTDFTLTISSLQPEDFATYYCQQYRRIPWTFGQGTKLEIKR
In the case of B8, the Kd in assay [1] worked out at 3.15 nM; in assay [2], 14.8 nM.

B9: AB200-(2Vk44)_R2-VH-v1 (Fab, V domains shown)
VH: QVQLVQSGAEVKKPGSSVKVSCKASGGTFTNYWIHWVRQAPGQGLEWMGGTYRSHSDTYYNQKYKSRVTITADKSTSTAYMELSSLRSEDTAVYYCARGAIYHGYDVIENWGQGTLVTVSS
VL: DIQMTQSPSSLSASVGDRVTITCRASQSISSYINWYQQKPGKAPKLLIYATSNLQIGVPSRFSGSGSGTDFTLTISSLQPEDFATYYCQQYRRLPWSFGQGTKLEIKR
With B9, the Kd stood at 11.8 nM in assay [3] and 40 nM in assay [4].

B10: AB200-(2Vk35)_R2-VH-v69 (Fab, V domains shown)
VH: QVQLVQSGAEVKKPGSSVKVSCKASGGTFSNYWIHWVRQAPGQGLEWMGATYRIQSDTNYNQKFKSRVTITADKSTSTAYMELSSLRSEDTAVYYCARGAVYHGYDVIDNWGQGTLVTVSS
VL: DIQMTQSPSSLSASVGDRVTITCRASQSISSYINWYQQKPGKAPKLLIYATSNLQSGVPSRFSGSGSGTDFTLTISSLQPEDFATYYCQQYRRIPWTFGQGTKLEIKR
As for B10, the Kd in assay [1] stood at 16.2 nM; in assay [2], 46.6 nM.

B11: AB200-(2Vk35)_R2-VH-v56 (Fab, V domains shown)
VH: QVQLVQSGAEVKKPGSSVKVSCKASGGSFSNYWIHWVRQAPGQGLEWMGATYRIHSDTYYAQKYKSRVTITADKSTSTAYMELSSLRSEDTAVYYCARGAIFHGYDVIDNWGQGTLVTVSS
VL: DIQMTQSPSSLSASVGDRVTITCRASQSISSYINWYQQKPGKAPKLLIYATSNLQSGVPSRFSGSGSGTDFTLTISSLQPEDFATYYCQQYRRIPWTFGQGTKLEIKR
On to B11, for which the Kd in assay [1] turned out to be 11.3 nM; in assay [2], 44.7 nM.

B12: AB200-(2Vk35)_R2-VH-v49 (Fab, V domains shown)
VH: QVQLVQSGAEVKKPGSSVKVSCKASGGTYSNYWIHWVRQAPGQGLEWMGATYRIQSTTYYNQKFKSRVTITADKSTSTAYMELSSLRSEDTAVYYCARGAIYHGYDVIENWGQGTLVTVSS
VL: DIQMTQSPSSLSASVGDRVTITCRASQSISSYINWYQQKPGKAPKLLIYATSNLQSGVPSRFSGSGSGTDFTLTISSLQPEDFATYYCQQYRRIPWTFGQGTKLEIKR
On to B12, for which the Kd in assay [1] is 63.2 nM; in assay [2], 126 nM.

B13: AB200-(2Vk35)_R2-VH-v62 (Fab, V domains shown)
VH: QVQLVQSGAEVKKPGSSVKVSCKASGGTFSNYWIHWVRQAPGQGLEWMGGTYRIHSDTYYNEKFKSRVTITADKSTSTAYMELSSLRSEDTAVYYCARGAIYHGYDVIENWGQGTLVTVSS
VL: DIQMTQSPSSLSASVGDRVTITCRASQSISSYINWYQQKPGKAPKLLIYATSNLQSGVPSRFSGSGSGTDFTLTISSLQPEDFATYYCQQYRRIPWTFGQGTKLEIKR
On to B13, for which the values for the Kd in assay [1] and in assay [2] were 14.5 nM and 49 nM, respectively.

B14: AB200-(2Vk35)_R2-VH-v52 (Fab, V domains shown)
VH: QVQLVQSGAEVKKPGSSVKVSCKASGGSFSNYWIHWVRQAPGQGLEWMGATYRIQSDTYYAQKFKSRVTITADKSTSTAYMELSSLRSEDTAVYYCARGAIFHGYDVIDNWGQGTLVTVSS
VL: DIQMTQSPSSLSASVGDRVTITCRASQSISSYINWYQQKPGKAPKLLIYATSNLQSGVPSRFSGSGSGTDFTLTISSLQPEDFATYYCQQYRRIPWTFGQGTKLEIKR
In the case of B14, the results for the Kd in assay [1] and in assay [2] were 6.24 nM and 25.7 nM, respectively.
